System: MS2 coat protein
Experiment: apparent KD of MS2 coat protein; designed switch direction (-1 OFF switch, 1 ON switch): -1; higher = weaker reporter binding
Summary of the method: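 Apparent KD, taken as the median over clusters for each design, was obtained by curve-fitting normalised cluster fluorescence. Designed RNA switches had been transcribed on Illumina chips by stalled E. coli RNA polymerase and titrated with SNAP-549-labelled MS2 coat protein, doubling from 0.7 or 1.5 nM to 3 µM.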

[1] = input ligand: microRNA oligo, concentration not stated
[2] = Eterna round: R95, input ligand: microRNA oligo, concentration not stated

For “UUAUAACAUGAGGAUCACCCAUGUUAGGAUAUCAGGUACGAGCGCCGUGCUCAGGCCCUGAGAAGGAGCAUGGC [Eternabot (L1) Solution 36] (Eterna round: R97, puzzle: Exclusion 1)”, the “apparent KD of MS2 coat protein” value (input ligand: FMN 200 uM) was 14.9 nM and the “apparent KD of MS2 coat protein” value (input ligand: none) was 18.6 nM.
In the case of “UUAUACAAGCAAAGAUCCCACAUGAGGAUCACCCAUGUGCUCGUCUUAUAAGGUACUGUGACGAAAGUCACGGUACC [Eli 87 + Mat D67 6] (Eterna round: R97, puzzle: Sensor, turn-off variant 1)”, the “apparent KD of MS2 coat protein” value (input ligand: FMN 200 uM) is reported as 42.3 nM and the “apparent KD of MS2 coat protein” value (input ligand: none) is reported as 41.6 nM.
For “UUAUUAAAUGUAGGAUAUGCAUAUUAUUAUUAUGCAGAAGGACAUGAGGAUCACCCAUGUAUAUUAUUAUUAUUUAUUAUUUAU [Title] (Eterna round: R96, puzzle: Exclusion NG 1)”, the “apparent KD of MS2 coat protein” value [1] was 35.5 nM.
“UUAUUACAAGCAAGAUCCCACAUGAGGAUCACCCAUGUGCUCGUCUUAUAAGGUACUGUGACGAAAGUCACGGUACC [Sensor 3, v1 - 100] (Eterna round: R96, puzzle: Sensor v3, turn-off variant 1)” was tested, and the “apparent KD of MS2 coat protein” value (input ligand: FMN 200 uM) was 26.3 nM, the “apparent KD of MS2 coat protein” value [1] was 547 nM and the “apparent KD of MS2 coat protein” value (input ligand: none) was 24.6 nM.
“UUAUUACAAGCAAGAUCCCACAUGAGGAUCACCCAUGUGCUCGUCUUAUAAGGUACUGUGACGAAAGUCACGGUACC [Sensor 3, v1 - 100] (puzzle: Sensor v3, turn-off variant 1)” was tested, and the “apparent KD of MS2 coat protein” value (Eterna round: R95, input ligand: FMN 200 uM) was 25.8 nM, the “apparent KD of MS2 coat protein” value [2] was 701 nM and the “apparent KD of MS2 coat protein” value (Eterna round: R95, input ligand: none) was 24.7 nM.
“UUAUUAUAUGUAGGAUAUGCAUAUUGUUGUUAUGCAGAAGGACAUGAGGAUCACCCAUGUAUAUUGUUGUUGUAUAUUAUAUAU [Title] (Eterna round: R96, puzzle: Exclusion NG 1)” was tested, and the “apparent KD of MS2 coat protein” value (input ligand: FMN 200 uM) was 33.2 nM, the “apparent KD of MS2 coat protein” value [1] was 22.6 nM and the “apparent KD of MS2 coat protein” value (input ligand: none) was 23.3 nM.
“UUAUUAUAUGUAGGAUAUGCGUAUUGUUGUUAUGCAGAAGGACAUGAGGAUCACCCAUGUAUAUUAUUGUUAUAUAUUAUAUAU [Title] (Eterna round: R96, puzzle: Exclusion NG 1)” was tested, and the “apparent KD of MS2 coat protein” value (input ligand: FMN 200 uM) was 43 nM, the “apparent KD of MS2 coat protein” value [1] was 20.2 nM and the “apparent KD of MS2 coat protein” value (input ligand: none) was 25.3 nM.
For “UUAUUCAGAGGAUAUGCGCAUAGAUAAGACUUUUUUUUUUAACAUGAGGAUCACCCAUGUAGAAGGCUGUAAUU [Ex2 #55] (Eterna round: R97, puzzle: Exclusion 2)”, the “apparent KD of MS2 coat protein” value (input ligand: FMN 200 uM) was 18.1 nM and the “apparent KD of MS2 coat protein” value (input ligand: none) was 21 nM.
“UUAUUGUAUGUAGGAUAUGCGUAUUAUUAUUGGGCAGAAGGACAUGAGGAUCACCCAUGUAUGUUGUUGUUAUAUAUUAUAUAU [Title] (Eterna round: R96, puzzle: Exclusion NG 1)” was tested, and the “apparent KD of MS2 coat protein” value (input ligand: FMN 200 uM) was 61 nM, the “apparent KD of MS2 coat protein” value [1] was 39.3 nM and the “apparent KD of MS2 coat protein” value (input ligand: none) was 47.6 nM.
“UUAUUGUGAGGAUAUCAGGUGUGCUAGCGUACUGGUACAUCUGAGAAGGCACAUGAGGAUCACCCAUGUUCCUU [JL-ex4-3.26 Brourd mod] (puzzle: Exclusion 4)” was tested, and the “apparent KD of MS2 coat protein” value [2] was 14.4 nM.
For “UUCAGUCUAGAGGAUAUGCUGGAUUAAUAUCUGGCAGAAGGCUGGACAUGAGGAUCACCCAUGUAAAUACUACC [Omei Ex6 A5] (Eterna round: R97, puzzle: Exclusion 6)”, the “apparent KD of MS2 coat protein” value (input ligand: FMN 200 uM) was 356 nM and the “apparent KD of MS2 coat protein” value (input ligand: none) was 68.3 nM.
With “UUCAUUGCAGGAUAUACAUGAGGAUCACCCAUGUGACCAGUGGCCUGUUGCGGCUCCAGUAGAAGGGCAUGUGU [Eternabot (L2) Solution 89] (Eterna round: R97, puzzle: Exclusion 3)” the “apparent KD of MS2 coat protein” value (input ligand: FMN 200 uM) was 63.8 nM and the “apparent KD of MS2 coat protein” value (input ligand: none) was 61.2 nM.
“UUCCGGCAUGUAGGAUAUGGAUCCGAUUAGGAUUUAGAAGGACAUGAGGAUCACCCAUGUGCAUUUAAUUAGUCAUUACCGUUU [EXclNG1-LROPPY06] (Eterna round: R96, puzzle: Exclusion NG 1)” was tested, and the “apparent KD of MS2 coat protein” value [1] was 34.4 nM.
